T1: Myo5 SH3 (MYO5_YEAST), Q04439
T1 chain: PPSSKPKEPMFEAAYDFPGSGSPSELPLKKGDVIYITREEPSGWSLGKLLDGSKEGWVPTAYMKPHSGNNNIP


Molecular target: T1, Myo5 SH3 (MYO5_YEAST), Q04439
Assay: SPOT array

Binder	normalised SPOT signal, Boehringer light units (BLU); mean over the file's lines of this peptide
DPSLYQIPEPPRGG [YOR307C 21-34]	98.8
GARFLPAPHRPEKY [YGR154C 63-76]	153
GEIMFPAPPLPIAN [YDL172C 53-66]	2770
FAYSLGLPGAPKIK [YJL033W 477-490]	75.8
FLPVFNLPSNPALF [YKL083W 42-55]	154
FLSYMSEPKYPSNE [YJL029C 360-373]	142
EAYRLNYPELPRLT [YLR073C 184-197]	125
FFQLMQSPSLPLLM [YDR159W 429-442]	830
FLRTMAQPTDPKDQ [YER171W 720-733]	257
FARTLKIPNEPSPG [YKR038C 231-244]	146
EARPYSEPSEPEDS [YER162C 705-718]	208
EFDMLLLPFIPSID [YHR109W 353-366]	249
GEFFHSSPNIPHYA [YLR244C 297-310]	271
ELEDFAFPDTPTIV [YBR221C 343-356]	255
EWPGLDPPYIPLDF [YLR308W 63-76]	62.7
EPIAHLFPPGPKNP [YEL031W 876-889]	356
FFTIWFIPLVPVFW [YBL029C-A 44-57]	397
ELRKLVQPITPIIK [YGR062C 88-101]	170
FESFLRPPSTPDLP [YLR149C 637-650]	70.2
DPNAYMQPQVPVQM [YIL109C 92-105]	160

Binder	normalised SPOT signal, Boehringer light units (BLU); mean over the file's lines of this peptide
FEMVFRHPEQPHMI [YBL088C 1519-1532]	310
EAFKLPKPWSPNSH [YHR036W 272-285]	141
ELFTFDMPTDPSSF [YCR091W 173-186]	44.9
FASQLRKPRAPMRN [YER141W 445-458]	460
FEESMNNPLPPLPP [YDL117W 176-189]	169
ELRTLFVPLIPSVT [YLR454W 1338-1351]	294
FFFFHLSPSIPFWF [YDL196W 57-70]	6490
ELAEFTDPSSPVSE [YNL278W 118-131]	189
EAHQHHQPPEPQPY [YDR432W 85-98]	0
FEKRYYVPEDPSQD [YPR184W 1320-1333]	121
FLSRYPVPDLPIYL [YDR422C 770-783]	1340
FPFYLSFPFSPSFP [YLR198C 23-36]	760
DPNQLSTPPTPKSA [YGR070W 171-184]	166
FLYPYDDPNAPIDE [YCR079W 210-223]	55.4
EAGDFEQPKGPAGA [YPL127C 99-112]	49.8
GAPPLPVPNGPAVG [YPL190C 573-586]	222
FFNRYPNPYSPHVL [YLR193C 22-35]	137
EETEMLAPKLPEEN [YNR028W 128-141]	81.6
EPATLPLPGTPTLA [YKR041W 168-181]	61.8
EEMGMEEPQAPEAF [YPL176C 44-57]	128

Binder	normalised SPOT signal, Boehringer light units (BLU); mean over the file's lines of this peptide
EADGLVQPVVPDKV [YER036C 364-377]	75.1
FLTVYILPKNPFRV [YGR293C 121-134]	1470
FFPIMSLPVTPVKS [YER032W 46-59]	122
ELYYLNDPKYPGTK [YGR154C 125-138]	0
FWKIHLSPPLPSFK [YGR018C 23-36]	966
EPEPLMSPVPPSSA [YMR313C 491-504]	215
GESHYKPPSTPKIN [YFL034W 1020-1033]	722
FESTLPIPTYPREG [YEL070W 20-33]	122
EFSPHSTPVTPRRL [YGL003C 167-180]	114
ELRDLDIPLVPSPK [YLR131C 69-82]	75.3
EAIKLGVPKGPLFA [YKR079C 211-224]	130
FEDHHITPSKPGGQ [YDR451C 287-300]	67.9
FPKKMGPPQWPFST [YHR199C 84-97]	279
ELLSFLSPGKPSKG [YML005W 159-172]	57.4
FLALFSDPARPFLT [YHL005C 61-74]	452
GAGGLGSPALPYLA [YHR111W 74-87]	111
EPPSWKPPDLPIRL [YIL156W 498-511]	87000
FENLLMEPNLPFFT [YJR031C 942-955]	202
